{"source": "patent US20240327506A1", "about": "“METHODS AND COMPOSITION FOR THE SELECTIVE ENHANCEMENT OF ADOPTIVE CELL THERAPY” (MaineHealth, priority 2023, published 2024)", "molecular_target": "T1, β3 integrin (Mus musculus, UniProt O54890+P43406)", "T1 construct": "we isolated primary CD8+ T-cells from melanoma bearing mice; endogenous in cells; host or cells: primary CD8+ T-cells isolated from melanoma bearing mice", "T1 sequence (O54890 26-787)": "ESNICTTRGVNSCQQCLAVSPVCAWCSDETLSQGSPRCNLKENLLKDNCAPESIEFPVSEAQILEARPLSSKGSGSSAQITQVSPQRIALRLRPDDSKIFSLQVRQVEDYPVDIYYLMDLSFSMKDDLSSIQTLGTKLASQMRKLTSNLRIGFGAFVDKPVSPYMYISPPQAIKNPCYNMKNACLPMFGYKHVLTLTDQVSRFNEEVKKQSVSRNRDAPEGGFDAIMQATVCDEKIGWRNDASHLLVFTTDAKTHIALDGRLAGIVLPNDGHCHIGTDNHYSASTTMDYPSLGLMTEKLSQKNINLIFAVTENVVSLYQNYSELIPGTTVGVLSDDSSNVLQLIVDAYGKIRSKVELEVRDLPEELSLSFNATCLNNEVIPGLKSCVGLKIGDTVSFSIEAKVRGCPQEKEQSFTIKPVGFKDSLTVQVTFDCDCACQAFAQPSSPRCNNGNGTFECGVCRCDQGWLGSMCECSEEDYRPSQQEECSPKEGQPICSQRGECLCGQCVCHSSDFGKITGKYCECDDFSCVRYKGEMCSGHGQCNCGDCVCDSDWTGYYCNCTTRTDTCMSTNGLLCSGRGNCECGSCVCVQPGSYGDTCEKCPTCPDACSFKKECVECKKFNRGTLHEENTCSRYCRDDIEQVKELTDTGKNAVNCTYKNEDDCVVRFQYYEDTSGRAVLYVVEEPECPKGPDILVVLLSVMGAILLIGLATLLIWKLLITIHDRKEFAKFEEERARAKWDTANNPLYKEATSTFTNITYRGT", "T1 sequence (P43406 31-885 limits assumed)": "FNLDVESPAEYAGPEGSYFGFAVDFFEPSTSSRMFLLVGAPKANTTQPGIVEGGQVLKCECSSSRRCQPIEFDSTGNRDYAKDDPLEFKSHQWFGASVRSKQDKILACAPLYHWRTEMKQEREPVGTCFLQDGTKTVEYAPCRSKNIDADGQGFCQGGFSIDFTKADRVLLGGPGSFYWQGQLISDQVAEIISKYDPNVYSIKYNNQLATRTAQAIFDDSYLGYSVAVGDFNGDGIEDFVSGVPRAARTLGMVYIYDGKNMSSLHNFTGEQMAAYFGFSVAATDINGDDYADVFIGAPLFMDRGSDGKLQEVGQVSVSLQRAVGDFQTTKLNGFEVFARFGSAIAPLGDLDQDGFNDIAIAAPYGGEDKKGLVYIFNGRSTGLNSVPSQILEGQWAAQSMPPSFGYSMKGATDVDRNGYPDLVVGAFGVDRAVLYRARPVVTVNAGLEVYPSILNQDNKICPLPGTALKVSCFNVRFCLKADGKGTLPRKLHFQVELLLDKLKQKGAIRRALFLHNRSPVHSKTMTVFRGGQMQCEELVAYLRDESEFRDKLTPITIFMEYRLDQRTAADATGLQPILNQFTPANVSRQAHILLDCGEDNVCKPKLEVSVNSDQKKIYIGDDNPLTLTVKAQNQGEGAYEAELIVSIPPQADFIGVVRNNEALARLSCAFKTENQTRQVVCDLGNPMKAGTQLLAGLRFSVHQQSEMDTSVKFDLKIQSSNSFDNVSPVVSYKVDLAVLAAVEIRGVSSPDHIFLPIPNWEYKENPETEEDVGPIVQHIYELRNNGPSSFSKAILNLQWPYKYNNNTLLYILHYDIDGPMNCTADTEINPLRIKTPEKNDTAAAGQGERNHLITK", "T1 sequence (P43406 887-1044 partner limits assumed)": "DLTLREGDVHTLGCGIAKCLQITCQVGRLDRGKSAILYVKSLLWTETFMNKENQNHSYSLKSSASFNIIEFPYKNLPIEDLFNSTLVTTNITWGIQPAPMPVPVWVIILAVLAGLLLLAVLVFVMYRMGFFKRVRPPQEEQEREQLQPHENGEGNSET", "assay": "Western blot of β3 integrin phosphorylation in primary CD8+ T-cells after peptide stimulation", "assay_type": "cell-based, murine", "conditions": "primary CD8+ T-cells from melanoma bearing mice, compared to control peptide CP", "experimental": "FIGS. 2A-2F. Detection of RGDKGE (SEQ ID NO: 1)-containing collagen peptide in malignant tumor cells and expression of key signaling molecules in T-cells. Briefly, whole cell lysates and serum free concentrated conditioned medium was prepared from tumor cells lines. FIG. 2A. Western blot analysis of whole cell lysates from human C8161 and murine B16F10 melanoma cells for the expression of the low molecular weight 16 kDa RGDKGE (SEQ ID NO: 1)-containing collagen peptide (XL313) or actin as a loading control. FIG. 2B. […]\nWhole cell and CAM tissue lysates were collected in RIPA buffer (10 mM Tris-HCl, pH 8.0; 1 mM EDTA; 0.5 mM EGTA; 1% Triton X-100; 0.1% Sodium Deoxycholate; 0.1% SDS; 140 mM NaCl) supplemented with 1× protease inhibitor and 1× phosphatase inhibitor and were run on polyacrylamide gels using denaturing conditions. […] Western blot bands were quantified using Image J software based on pixel intensity.\nWe previously made the surprising observation that a small bioactive collagen peptide containing the core amino acid sequence RGDKGE (SEQ ID NO: 1) could be generated inside a subset of M2-like activated macrophages as well as a variety of other malignant tumor cells, and then actively secreted outside the cells (11-13). Importantly, minimal levels of this soluble collagen peptide was detected in normal cells (13). […]", "data": [{"sequence": "QGPRGDKGE (CQGPRGDKGEC; Synthetic: Synthetic collagen RGD containing peptide P-2) [Peptide P2, synthetic version of the soluble RGDKGE-containing collagen peptide]", "values": [{"measurement": "β3 integrin phosphorylation", "result": "enhanced β3 integrin phosphorylation"}]}]}
